Source: publication PMC3565045

Biological target: Cryptococcus neoformans acetate kinase (Cryptococcus neoformans)
Assay: crystal structure

Substance: Cryptococcus neoformans acetate kinase (enzyme)
- stoichiometry N: 2
